Test results: publication PMC4405178 (Biochemistry, 2015)
Where a chain is given by its changes, count along the chain named.

Assays:
Experiment in all cases: flow cytometry on cells
[1] = molecular target: T1, C-terminally truncated wild-type Ste2p (Saccharomyces cerevisiae, UniProt D6VTK4 1-303)
T1 sequence (looked up): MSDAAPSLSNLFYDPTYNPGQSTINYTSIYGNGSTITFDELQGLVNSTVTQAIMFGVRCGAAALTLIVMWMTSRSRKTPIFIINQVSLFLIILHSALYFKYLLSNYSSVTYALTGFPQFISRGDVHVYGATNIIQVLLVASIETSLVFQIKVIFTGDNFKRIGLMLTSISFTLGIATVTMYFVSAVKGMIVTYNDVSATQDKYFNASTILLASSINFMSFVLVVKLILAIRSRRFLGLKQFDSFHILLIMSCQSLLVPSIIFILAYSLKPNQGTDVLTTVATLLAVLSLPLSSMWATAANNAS

full-length Ste2p S104Y = molecular target: T2, full-length Ste2p S104Y (Saccharomyces cerevisiae, UniProt D6VTK4 1-431, S104Y)
T2 sequence (looked up): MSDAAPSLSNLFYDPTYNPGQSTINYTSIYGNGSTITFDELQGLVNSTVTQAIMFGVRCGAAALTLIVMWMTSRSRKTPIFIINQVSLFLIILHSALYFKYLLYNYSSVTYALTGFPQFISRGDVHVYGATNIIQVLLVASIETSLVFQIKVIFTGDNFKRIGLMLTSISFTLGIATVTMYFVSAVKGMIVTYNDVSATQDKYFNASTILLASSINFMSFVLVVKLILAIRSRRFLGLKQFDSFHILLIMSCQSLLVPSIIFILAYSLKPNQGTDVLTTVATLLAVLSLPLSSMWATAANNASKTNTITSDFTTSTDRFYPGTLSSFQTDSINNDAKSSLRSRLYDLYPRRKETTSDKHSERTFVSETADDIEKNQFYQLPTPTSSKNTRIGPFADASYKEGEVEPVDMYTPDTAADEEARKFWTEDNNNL

full-length Ste2p H94Y = molecular target: T3, full-length Ste2p H94Y (Saccharomyces cerevisiae, UniProt D6VTK4 1-431, H94Y)
T3 sequence (looked up): T2 sequence (looked up) with H94Y, Y104S

[2] = molecular target: T4, C-terminally truncated Ste2p H94Y (Saccharomyces cerevisiae, UniProt D6VTK4 1-303, H94Y)
T4 sequence (looked up): T1 sequence (looked up) with H94Y

[3] = molecular target: T5, C-terminally truncated Ste2p S104Y (Saccharomyces cerevisiae, UniProt D6VTK4 1-303, S104Y)
T5 sequence (looked up): T1 sequence (looked up) with S104Y

[4] = molecular target: T6, C-terminally truncated Ste2p V49D (Saccharomyces cerevisiae, UniProt D6VTK4 1-303, V49D)
T6 sequence (looked up): T1 sequence (looked up) with V49D

B1: [K^7(NBD),Nle^12] α-factor (peptide)
chain: WHWLQLKPGQPMY
modifications: NBD (7-nitrobenz-2-oxa-1,3-diazol-4-yl) conjugated to the lysine at position 7; norleucine at position 12 in place of methionine
In the case of B1, the Kd [1] is reported as 19 ± 3.8 nM, the Kd (full-length Ste2p S104Y) is reported as 2 ± 0.7 nM and the Kd (full-length Ste2p H94Y) is reported as 5.2 ± 2.1 nM. For the same binder, the Kd [2] was 47 ± 8.1 nM, the Kd [3] was 12 ± 3.4 nM and the Kd [4] was 23 ± 3.3 nM.
